Data on one substance can be found in patent publication EP0599274A1.

The assay addresses HER4/p180erbB4 (human prototype HER4 polypeptide) (human). Nature of the assay: cell-based or functional assay.

“recombinant rat neu differentiation factor (NDF) (from UniProt P43322 14-241) (ligand)” gave an increase in tyrosine phosphorylation of HER4 after 15 minutes incubation of 2.4 to 4 fold.
